Data reported in patent US8114638B2, “Arabinitol dehydrogenase from Neurospora crassa” (The Board of Trustees of the University of Illinois, priority 2007, dated 2012).

Legend:
[1] = Kinetic parameters of LAD from various source organisms; type: biochemical; settings: for Specific activity: purified N. crassa LAD
Experimental: Initial rates were determined using a Varian Cary 100 Bio UV-visible spectrophotometer (Varian) at 25° C. in 50 mM Tris (pH 8.0). […] Kinetic measurements with substrate L-arabinitol and cofactor NAD^+ were taken in a 5-by-5 matrix format, with substrate and cofactor concentrations varied from below their Km to 10-fold higher than their Km. The kinetic data were analyzed with a modified version of Cleland's program (Cleland, W. W. (1979) Statistical analysis of enzyme kinetic data, Methods Enzymol 63, 103-138.). Vmax and Km for both L-arabinitol and NAD^+ were obtained by fitting the data to a sequential ordered mechanism with NAD^+ binding first, based on the proposed mechanism for sorbitol dehydrogenase (Lindstad et al. (1992) The kinetic mechanism of sheep liver sorbitol dehydrogenase, Eur J Biochem 210, 641-647.) v=VmaxAB/(KiaKB+KAB+KBA+AB) (EQ. 1)

[2] = F59 mutant kinetic analysis, substrate xylitol; type: biochemical; settings: 25° C., 50 mM Tris pH 8.0, NAD+ 2 mM
Experimental: (§1) Initial rates were determined using a Varian Cary 100 Bio UV-visible spectrophotometer (Varian) at 25° C. in 50 mM Tris (pH 8.0). […] This is the first reported detection of NADP^+ utilization by LAD, although it is still considered a strongly NAD^+-dependent enzyme. Kinetic measurements with substrate L-arabinitol and cofactor NAD^+ were taken in a 5-by-5 matrix format, with substrate and cofactor concentrations varied from below their Km to 10-fold higher than their Km. The kinetic data were analyzed with a modified version of Cleland's program (Cleland, W. W. (1979) Statistical analysis of enzyme kinetic data, Methods Enzymol 63, 103-138.). Vmax and Km for both L-arabinitol and NAD^+ were obtained by fitting the data to a sequential ordered mechanism with NAD^+ binding first, based on the proposed mechanism for sorbitol dehydrogenase (Lindstad et al. (1992) The kinetic mechanism of sheep liver sorbitol dehydrogenase, Eur J Biochem 210, 641-647.) v=VmaxAB/(KiaKB+KAB+KBA+AB) (EQ. 1)
(§2) Activity assays were run for three mutants of N. crassa LAD (F59A, F59S, and F59Y) to study the effect of mutation of this active site, putative substrate binding residue homologous to tyrosine in other SDHs. […]

[3] = F59 mutant kinetic analysis, substrate L-arabinitol; type: biochemical; settings: 25° C., 50 mM Tris pH 8.0, NAD+ 2 mM
Experimental: as §1, §2

[4] = Thermal inactivation and storage stability of LAD; type: physicochemical
[5] = pH rate profile of LAD activity; type: biochemical; settings: universal buffer, 2 mM NAD+, 200 mM L-arabinitol
Experimental: Activity was measured at pH values between 7.0 and 11.0 under saturating concentrations of NAD+ (2 mM) and L-arabinitol (200 mM) in a universal buffer (50 mM morpholineethanesulfonic acid (MES)/50 mM Tris/50 mM glycine). The pH range for N. crassa LAD activity was large, with >25% of the activity occurring with pH values of 7.0 to 11.0 (FIG. 2C). The pH optimum was around pH 9.5, and >60% of the activity remained in the pH span from 8.0 to 10.5.

[6] = Effect of GST-tag removal on specific activity; type: biochemical; settings: 4° C. overnight
Text: N. crassa RNA purification, reverse-transcription PCR, cloning, and N. crassa LAD expression are described in this example. […] The reverse transcription-PCR product was subcloned into pGEX-4T-3 vector (Amersham Biosciences) using EcoRI and NotI restriction sites and was transformed into Escherichia coli BL21(DE3). This construct (pGEX-lad1) encoded N. crassa LAD as an N-terminal glutathione S-transferase (GST)-tagged fusion with a thrombin cleavage site. Cell lysates of isopropyl-β-D-thiogalactopyranoside (IPTG) induced cultures of these cells were prepared, analyzed by SDS-PAGE, and assayed for LAD activities. The construct produced soluble GST-tagged N. crassa LAD at ˜16% of the total soluble cellular proteins (FIG. 1), which was then purified in a single step with a GST-Bind kit (Novagen) according to manufacturer's protocol. […] Protein concentrations were determined by the Bradford method and by using an estimated extinction coefficient (San Diego Supercomputer Center Biology Workbench) of 35.3 mM-1 cm-1 at 280 nm with similar results. The purity of the protein was analyzed by an SDS-PAGE gel stained with Coomassie brilliant blue (FIG. 1). […]
To determine the effect of removal of the GST-tag, the purified LAD was incubated with and without thrombin at 4° C. overnight. […] It was determined that removal of the GST-tag enhanced activity by about 65%. […]

[7] = Temperature dependence of LAD activity; type: biochemical
Experimental: The optimal temperature of activity was determined by assaying LAD activities at temperatures ranging from 12 to 65° C. […] (FIG. 2A). At higher temperatures, the enzyme inactivates rapidly, and at lowered temperatures, the rate increases with temperature according to the Arrhenius equation. Utilizing the Arrhenius equation to fit the data from 12 to 30° C., the energy of activation for L-arabinitol oxidation by N. crassa LAD was determined to be 49 kJ/mol. […] Thermal inactivation of N. crassa LAD was studied by incubating at 50° C. in 50 mM Tris (pH 8.0), with samples removed at various times and assayed for activity in saturating substrate conditions.

[8] = F59 mutant kinetic analysis, substrate adonitol; type: biochemical; settings: 25° C., 50 mM Tris pH 8.0, NAD+ 2 mM
Experimental: as §1, §2

N. crassa LAD: NAD+-dependent L-arabinitol 4-dehydrogenase from Neurospora crassa, 363 residues, SEQ ID NO: 1, recombinantly expressed in E. coli
kcat ([1]; N. crassa LAD): 1,206 min^−1
Km ([1]; N. crassa LAD, read-out: Km,L-arabinitol): 16 mM
Km ([1]; N. crassa LAD, read-out: Km,NAD+): 0.174 mM
specific activity relative to H. jecorina LAD purified from S. cerevisiae heterologous expression ([1]; greater): ~20 fold
Specific activity [1]: about 31 U/mg
Specific activity ([1]; listed as N. crassa): 31 U/mg
kcat (mean ± SD) [2]: 16.2 ± 0.667 s⁻¹
kcat (mean ± SD) [3]: 1,210 ± 30 min^−1
stability to repeated freezing (in words) [4]: quite stable and does not markedly lose activity when frozen repeatedly
activity retained ([4]; 45° C., after 4 hr): ~60%
storage stability (in words) ([4]; room temperature and 4° C.): retained activity at room temperature for longer than one month and at 4 °C for several months
activity at pH values of 7.0 to 11.0 [5]: > 25%
activity remaining in the pH span from 8.0 to 10.5 [5]: > 60%
pH optimum [5]: ~9.5 pH
increase of specific activity of thrombin-cleaved LAD over GST-tagged LAD [6]: about 65%
energy of activation for L-arabinitol oxidation ([7]; Arrhenius fit of data from 12 to 30° C.): 49 kJ/mol
optimum temperature of activity ([7]; assayed from 12 to 65° C., 200 mM L-arabinitol, 2 mM NAD+): 45-55 °C
kcat (mean ± SD) [8]: 1,080 ± 30 min^−1
Km ([8]; read-out: Km (mean ± SD)): 35 ± 3 mM
